# Test results taken from article PMC6540902, “A simple, robust, universal assay for real-time enzyme monitoring by signalling changes in nucleoside phosphate anion concentration using a europium(III)-based anion receptor” (Chemical Science, 2019).
# B1: Aurora A kinase (AurA) (Homo sapiens) (protein)
# chain: MDRSKENCISGPVKATAPVGGPKRVLVTQQFPCQNPLPVNSGQAQRVLCPSNSSQRIPLQAQKLVSSHKPVQNQKQKQLQATSVPHPVSRPLNNTQKSKQPLPSAPENNPEEELASKQKNEESKKRQWALEDFEIGRPLGKGKFGNVYLAREKQSKFILALKVLFKAQLEKAGVEHQLRREVEIQSHLRHPNILRLYGYFHDATRVYLILEYAPLGTVYRELQKLSKFDEQRTATYITELANALSYCHSKRVIHRDIKPENLLLGSAGELKIADFGWSVHAPSSRRTTLCGTLDYLPPEMIEGRMHDEKVDLWSLGVLCYEFLVGKPPFEANTYQETYKRISRVEFTFPDFVTEGARDLISRLLKHNPSQRPMLREVLEHPWITANSSKPSNCQNKESASKQS
# Substrate: CC(C)C[C@H](NC(=O)[C@H](CO)NC(=O)[C@H](C)NC(=O)[C@H](CCCNC(=N)N)NC(=O)[C@H](CCCNC(=N)N)NC(=O)[C@@H](N)CC(C)C)C(=O)NCC(=O)O
# Assay: Michaelis-Menten substrate titration (Km) by real-time Eu(III) luminescence
# Format: biochemical, Homo sapiens
# Details: ATP, Mg2+
protein,measurement,value
B1,Km,176 ± 29 µM
